Assay results: paper PMC9180478

Key:
[1] = target: Myc-PCNA (UniProt P12004); assay: FLAG-immunoprecipitation, immunoblot; details: transient co-expression with Myc-PCNA; parent: 1.00
[2] = target: Myc-PCNA (C81R) (UniProt P12004); assay: FLAG-immunoprecipitation, immunoblot; details: transient co-expression with Myc-PCNA (C81R); parent: 1.00

Substance	ratio to parent [1]	ratio to parent [2]
FLAG-ATAD5 (812–1844) (from UniProt Q96QE3) 815SSQD818 to GGAA	0.91	
FLAG-ATAD5 (812–1844) (from UniProt Q96QE3) 815SSQD818 to GGAA; S824A; Q825A; D826A	1.35	0.91
